Data taken from patent US5670637.

How the values were obtained:
[1] = target: HIV-1 reverse transcriptase p66/p51 heterodimer (Human immunodeficiency virus 1) (UniProt P04585+P04585); assay: filter; conditions: half-maximal binding; 200 mM KOAc, 50 mM Tris-HCl pH 7.7, 10 mM DTT
[2] = target: human tissue plasminogen activator (htPA) (Homo sapiens) (UniProt P00750); assay: filter; conditions: 150 mM NaAc, 50 mM Tris-acetate pH 7.5
[3] = target: T1, T4 DNA polymerase (gp43) (Bacteriophage T4) (UniProt P04415); assay: filter; conditions: random loop population, 50-fold lower affinity
T1 sequence: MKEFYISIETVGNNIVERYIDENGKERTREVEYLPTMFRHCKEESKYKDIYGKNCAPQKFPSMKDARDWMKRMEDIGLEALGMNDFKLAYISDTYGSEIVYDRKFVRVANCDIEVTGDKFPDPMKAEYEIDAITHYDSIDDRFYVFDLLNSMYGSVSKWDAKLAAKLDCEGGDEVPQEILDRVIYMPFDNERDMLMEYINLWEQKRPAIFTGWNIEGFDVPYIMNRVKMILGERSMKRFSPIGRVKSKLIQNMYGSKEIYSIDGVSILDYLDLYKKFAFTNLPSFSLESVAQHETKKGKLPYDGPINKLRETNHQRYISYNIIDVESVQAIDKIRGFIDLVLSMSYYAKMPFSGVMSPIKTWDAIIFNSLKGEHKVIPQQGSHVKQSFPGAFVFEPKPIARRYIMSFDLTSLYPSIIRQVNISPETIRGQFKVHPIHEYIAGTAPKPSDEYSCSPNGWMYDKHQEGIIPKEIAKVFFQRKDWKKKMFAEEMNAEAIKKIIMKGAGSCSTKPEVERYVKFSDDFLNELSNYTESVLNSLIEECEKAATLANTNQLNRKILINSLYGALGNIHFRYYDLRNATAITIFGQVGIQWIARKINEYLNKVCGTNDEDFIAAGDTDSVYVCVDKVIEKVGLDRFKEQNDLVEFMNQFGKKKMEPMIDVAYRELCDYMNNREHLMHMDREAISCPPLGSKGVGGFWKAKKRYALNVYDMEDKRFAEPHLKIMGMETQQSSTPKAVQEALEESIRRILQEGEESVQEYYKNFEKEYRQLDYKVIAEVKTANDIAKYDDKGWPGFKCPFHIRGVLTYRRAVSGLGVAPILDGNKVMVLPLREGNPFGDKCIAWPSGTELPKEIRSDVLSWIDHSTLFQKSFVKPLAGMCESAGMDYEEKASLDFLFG

[4] = target: T1, T4 DNA polymerase (gp43) (Bacteriophage T4); assay: FP; conditions: filter binding; 200 mM KOAc, 50 mM Tris-HCl pH 7.7, 37 C

Chain of human tissue plasminogen activator (htPA) (Homo sapiens) (P00750 36-562): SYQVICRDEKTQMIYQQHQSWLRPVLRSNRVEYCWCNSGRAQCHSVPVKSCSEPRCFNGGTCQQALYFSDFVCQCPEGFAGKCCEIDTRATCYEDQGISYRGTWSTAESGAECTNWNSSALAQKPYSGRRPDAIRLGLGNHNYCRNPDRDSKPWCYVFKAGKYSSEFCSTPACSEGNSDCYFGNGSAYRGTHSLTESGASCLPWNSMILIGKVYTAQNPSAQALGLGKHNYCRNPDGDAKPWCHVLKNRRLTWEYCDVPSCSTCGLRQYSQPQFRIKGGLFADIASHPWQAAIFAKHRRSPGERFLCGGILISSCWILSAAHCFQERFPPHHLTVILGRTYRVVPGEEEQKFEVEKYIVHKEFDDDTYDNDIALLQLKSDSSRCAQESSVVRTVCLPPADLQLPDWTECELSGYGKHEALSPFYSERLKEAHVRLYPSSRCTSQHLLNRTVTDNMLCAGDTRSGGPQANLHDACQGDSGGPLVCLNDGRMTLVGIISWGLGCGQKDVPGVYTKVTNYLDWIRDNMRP

“GGGAGCAUCAGACUUUUAAUCUGACAAUCAAGNNNNNNNNNNNNNNNNNNNNNNNNNNNNNNNNAUCUAUGAAAGAAUUUUAUAUCUCUAUUGAAAC” gave a K half [1] of 700 nM.
With “GGGAGCUCAGAAUAAACGCUCAANNNNNNNNNNNNNNNNNNNNNNNNNNNNNNUUCGACAUGAGGCCCGGAUCCGGC [30N candidate pool]” the Kd [2] was 70 nM.
“AUAUUCCUUAGUUUAUAGCCCNNNNNNNNAGGCUCUUGAUUG [gene 43 operator RNA random 8N loop pool]” gave a Kd [3] of 250 nM.
“AUAUUCCUUAGUUUAUAGCCCNNNNNNNNAGGCUCUUGAUUG [gp43 RNA wild-type loop AAUAACUC]” was tested, and the Kd [4] was 5 nM.
